The text below walks through data of PMC11145656 (Structure (London, England : 1993), 2023).

What all share (test): BLI
The target of test [1] is SARSr-CoV Rs4874-GCN S protein (Bat SARS-like coronavirus isolate Rs4874, strain).
The target of test [2] is SARSr-CoV Rs4231-T4 S protein (bat SARS-related CoV Rs4231).
In test [3] the target is SARS-CoV-1 RBD (SARS-CoV-1).

B1: CR3022 IgG1 (antibody, V domains shown)
VH: EVQLVQSGTEVKKPGESLKISCKGSGYGFITYWIGWVRQMPGKGLEWMGIIYPGDSETRYSPSFQGQVTISADKSINTAYLQWSSLKASDTAIYYCAGGSGISTPMDVWGQGTTVTVSS
VL: not shown
Take B1: the binding result in test [1] and in test [2] was “binds” throughout.

B2: Ab246 IgG1 (antibody, V domains shown)
VH: QVQLQESGPGLVKPSETLSLTCSVSGDSIGTYYWSWIRQSPEKGLEWIGYIHHSGKTNYNPSLKSRVTMSVDTSKNQFSLKLTSVTAADTAVYYCARSPIGYCSSTKCYIDKPFDSWGQGTLVTVSS
VL: QAVLTQPSSLSASPGASASLTCTLRGGINVVNQRLYWYQQKPGSPPRFLLKYKSDSDNFLGSGVPSRFSGSKDASANAGILLISEVQSEDEADYYCMMWHSSAYVFGGGTKLTVL
As for B2, the binding result in test [3] and in test [1] was “binds” each time.
